Data published in paper PMC5963859.

System: GST-MBNL1 (GST-MBNL1Δ101 in Methods)
Test: EMSA
Settings: EMSA: 0.75 mM MgCl2, 50 mM Tris-HCl pH 7.0, 75 mM NaCl, 37.5 mM KCl, 5.25 mM DTT, 0.1 mg/ml BSA, 0.1 mg/ml bulk tRNA, RNasin 0.4 U/ul; 20 min on ice, gel at …

CUG 10x RNA
IC50: 100 nM
